According to the supplement of paper PMC10567573:

B1: DLC1 (parent)
chain: AEVVKIRDSFSNQNTETKDTKSR
B2: ATL3 (parent)
chain: YGLQGGMAFLDKRLQVKEHQHEEI

Variants of: B1
Assay: protein stability index of a GFP-peptide fusion (GPS, HEK-293T) (PSI 1-6); higher = more stable
Settings: c terminus: native
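Also: lentivirally expressed fusions sorted by FACS into six bins by GFP to DsRed ratio, PSI derived from sequencing read proportions per bin multiplied by bin number.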

Protein stability index of substitutions, site by site:
F10: A 3.76 | C 2.54
V4: K 2.3 | A 1.73 | L 4.87 | D 3.04 | H 2.14 | G 2.01 | W 2.05 | Q 2.81 | N 2.48 | M 2.05 | S 2.12 | R 2.3 | F 2.89 | P 3.04 | Y 2.76 | I 1.98 | C 2.3 | E 2.59 | T 2.18
D8: Y 3.5 | P 1.73 | N 2.07 | V 3.31 | S 1.8 | T 2.32 | F 3.02 | C 1.46 | G 2.23 | H 2.41 | K 2.08 | E 2.92 | Q 1.26 | L 2.62 | A 2.53 | M 1.65
S9: H 3.54 | W 2.14 | P 2.64 | F 1.48 | T 2.29 | L 2.95 | A 2.55 | M 2.92 | Q 1.87 | N 2.22 | R 2.53 | Y 1.67 | G 2 | V 2.25 | K 2.32 | D 2.27 | I 1.49 | E 3.48 | C 2.8
I6: L 2.74 | Q 2.67 | F 2.41 | K 3.3 | E 3.33 | P 3.4 | D 2.79 | Y 2.65 | H 2.42 | M 2.64 | A 2.47 | C 2.43 | S 2.74 | R 3.18 | T 3.6 | V 2.74 | G 2.38
E2: Y 1.52 | L 1.03 | S 2.75 | N 2.04 | F 2.11 | T 3.03 | M 1.63 | G 1.95 | A 1.88 | H 2.02 | Q 1.79 | V 1.7 | D 2.99 | K 1.81 | C 2.43 | R 1.88
K5: T 2.88 | D 3.23 | A 2 | I 2.02 | H 2.58 | N 2.93 | S 2.77 | W 1.84 | R 2.33 | M 2.09 | E 3.01 | C 2.88 | V 1.94 | G 3.3 | P 2.67 | Q 2.43 | L 2.4 | Y 2.13
V3: L 2.29 | P 3.46 | K 4.55 | T 2.19 | D 3.54 | E 2.12 | G 2.12 | M 2.87 | Q 2.47 | W 2.53 | Y 1.7 | R 1.89 | S 1.95 | N 3 | H 2 | I 1.63 | F 2.09 | C 2.69 | A 2.24
R7: E 2.99 | L 3.01 | G 2.87 | W 1.69 | P 3.24 | Y 1.77 | H 2.21 | M 3.19 | C 2.5 | D 3.65 | A 3.56 | K 2.88 | F 3.38 | N 3.31 | V 3.12 | I 2.52 | S 2.42
A1: N 3.03 | D 3.12 | Y 1.79 | G 2.9 | R 2.73 | C 2.19 | S 1.75 | L 2.08 | Q 3.03 | V 1.92 | F 2.06 | P 1.72 | I 2.06 | K 3.16 | H 2.51 | T 2.08 | W 2.76 | M 2.37

Variants of: B2
Assay: as above
Settings: c terminus: a fixed tail appended

Protein stability index, by site and new letter:
E23: M 3.12 | V 2.17 | Q 2.9 | N 2.85 | R 2.99 | F 2.43 | L 2.25 | H 2.38 | Y 2.76 | I 2.66 | P 3.04 | D 3.04 | K 2.43 | W 2.57 | A 1.94 | G 3.58 | T 2.74 | C 3.04 | S 2.41
Q20: P 2 | G 3.57 | T 2.2 | N 2.86 | C 3.54 | D 3.09 | H 3.12 | K 1.85 | W 1.55 | A 2.87 | R 1.57 | F 3.31 | V 2.99 | Y 2.58 | E 2.5 | M 2.35 | S 2.12 | I 2.56
Q15: P 2.47 | N 1.79 | S 3.92 | T 2.04 | I 2.64 | M 3.24 | V 2.9 | K 2.54 | L 2.21 | W 2.37 | Y 2.44 | R 2.28
E22: M 2.24 | K 1.86 | S 3.33 | L 2.68 | F 2.03 | Q 1.75 | C 2.48 | Y 2.6 | G 2.8 | N 3.19 | D 2.48 | V 1.45 | R 2.16 | I 2.94 | A 2.54 | W 2.76 | P 2.96 | H 2.91 | T 1.9
I24: R 2.26 | N 2.89 | Y 4.04 | C 3.25 | M 1.71 | Q 2.14 | P 2.81 | V 2.5 | H 3.42 | T 1.79 | K 2.35 | A 2.58 | D 2.33 | S 2.56 | L 2.51 | E 2.29 | G 3.23 | F 4.03
V16: P 1.22 | N 1.6 | Y 3.04 | K 2.84 | G 1.77 | S 1.46 | Q 3.13 | L 2.81 | D 2.08 | T 2.3 | E 2.79 | H 1.91 | M 2.42 | W 2.33 | F 2.5 | C 2.78 | R 2.02 | A 2.7
K17: P 2.82 | M 2.55 | Q 1.55 | V 2.42 | Y 3.11 | S 1.8 | R 2.99 | H 2.63 | C 2.17 | N 3.3 | T 2.7 | A 1.42 | D 1.54 | E 2.56 | W 2.2 | I 2.51 | F 2.52
E18: L 1.74 | V 1.9 | G 3.65 | K 3.37 | T 2.4 | A 3.26 | S 1.73 | H 2.48 | C 2.58 | R 2.19 | I 3.67 | W 3.87 | F 3.53 | M 3.04 | P 2.37 | N 2.32 | D 2.19 | Q 1.99 | Y 2.61
H19: T 2.54 | S 2.01 | L 2.36 | C 2.31 | E 2.81 | G 2.65 | Q 2.48 | A 2.74 | I 2.95 | W 3.59 | Y 2.76 | V 3.03 | M 2.82 | D 3.38 | N 2.6 | K 2.25 | P 2.5
H21: R 3.51 | T 3.49 | K 3.21 | Y 2.55 | F 1.6 | P 2.33 | M 2.2 | Q 2.44 | A 2.51 | C 2.48 | L 2.8 | S 3.88 | D 2.11 | I 3.39 | E 3.27 | V 2.1
